Test results as given in patent US7282556 (EMORY UNIVERSITY, dated 2007).
Bridges are numbered along the chain shown (N, C = ends). Where no end group is shown, it is not given here.

B1: JAM-AP: extracellular domain of junctional adhesion molecule (JAM) fused to alkaline phosphatase (other, UniProt Q9Y624 28-238, looked up)
chain: SVTVHSSEPEVRIPENNPVKLSCAYSGFSSPRVEWKFDQGDTTRLVCYNNKITASYEDRVTFLPTGITFKSVTREDTGTYTCMVSEEGGNSYGEVKVKLIVLVPPSKPTVNIPSSATIGNRAVLTCSEQDGSPPSEYTWFKDGIVMPTNPKSTRAFSNSSYVLNPTTGELVFDPLSASDTGEYSCEARNGYGTPMTSNAVRMEAVERNVGV
notes: extracellular domain; Control AP fusion protein; not shown: alkaline phosphatase (as in CD47-AP)

Assays:
C5/D5 Fab = molecular target: T1, C5/D5 Fab; assay: competition ELISA: C5/D5 Fab (1 µg/ml) on coated purified CD47 with increasing peptide
T1 construct: Prepared by papain digestion of C5/D5; also called C5/D5 Fab fragment
Experimental: Figure 5: FIG. 5 is a graph that illustrates the effect of synthetic peptide C5/D5.1 ([…]) (SEQ. ID NO: 2) and control peptide C5/D5.4 ([…]) (SEQ. ID NO: 34), C5/D5.11 ([…]) (SEQ. ID NO: 36) and C5/D5.12 ([…]) (SEQ. ID NO: 6) on binding of C5/D5 Fab to CD47. CD47 was purified from human PMN or RBC as previously described (Liu, et al., Journal of Biological Chemistry, 277(12): 10028-36, 2002). The experiments were performed by coating microtiter plates with purified CD47 (in 1% octylglucoside containing buffer, used as 1:50 dilution) for 2 hour (hr). After blocking, C5/D5 Fab (1 µg/ml) was added without or with increasing amount of peptides. C5/D5 Fab binding was detected by a peroxidase conjugated goat anti-mouse secondary antibody. The data represent the mean and the standard deviation of triplicate wells.
To confirm that peptide C5/D5.1 simulates the natural epitope of CD47 recognized by mAb C5/D5, experiments were performed to test if this peptide can compete with CD47 in binding to C5/D5. Purified human CD47 from PMN and RBC was used to coat microtiter plates followed by incubation with C5/D5 Fab (1 μg/ml) either in the absence or presence of increasing amount C5/D5.1 or other control peptides. […] In contrast, control peptides, including C5/D5.11 (SEQ ID NO:36) and C5/D5.12 (SEQ ID NO:6) had no inhibition at concentrations up to 10 mM (FIG. 5). […]

[1] = molecular target: T2, SIRPα1-GST: extracellular domain of SIRPα1 fused to GST (UniProt P78324 31-373); assay: direct binding of synthetic peptide
T2 construct: extracellular domain; Produced in 293E cells as in Seiffert et al; also called SIRPα-GST; SIRP-GST; not shown: glutathione S-transferase (GST)

[2] = molecular target: T2, SIRPα1-GST: extracellular domain of …; assay: plate binding assay, JAM-AP and SIRPα-GST

T2 sequence (P78324 31-373): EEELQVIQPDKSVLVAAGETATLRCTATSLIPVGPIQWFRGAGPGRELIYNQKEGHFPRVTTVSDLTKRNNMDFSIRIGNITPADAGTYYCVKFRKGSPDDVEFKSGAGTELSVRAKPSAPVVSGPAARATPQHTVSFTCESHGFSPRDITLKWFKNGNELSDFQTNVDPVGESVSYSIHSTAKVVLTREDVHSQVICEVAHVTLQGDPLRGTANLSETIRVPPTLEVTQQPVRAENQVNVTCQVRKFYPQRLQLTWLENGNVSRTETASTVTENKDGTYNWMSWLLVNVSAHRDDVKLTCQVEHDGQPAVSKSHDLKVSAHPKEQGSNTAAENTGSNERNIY

| binding result [1] | also measured | Binder |
| --- | --- | --- |
|  | IC50 (C5/D5 Fab): 3.8 mM | CERVIGTGWVRC (disulfide 1-12 (inferred)) [synthetic peptide C5/D5.1 (CERVIGTGWVRC)] |
| no binding |  | SSAKIEVSQLLK [linear CD47 peptide comprising SSAKIEVSQLLK (aa82-93 of SEQ ID NO: 9)] |
| no binding |  | EVTELTREG [linear CD47 peptide comprising EVTELTREG (aa115-123 of SEQ ID NO: 9)] |
|  | binding result [2]: no binding | B1 |
